Measured values published in paper PMC2173821 (The Journal of Cell Biology, 2002).
Changes are numbered by the printed parent chain.

B1: His-tagged wild-type human BAF, recombinant (natural protein, UniProt O75531 1-89, looked up)
chain: MTTSQKHRDFVAEPMGEKPVGSLAGIGEVLGKKLEERGFDKAYVVLGQFLVLKKDEDLFREWLKDTCGANAKQSRDCFGCLREWCDAFL
B2: His-tagged human BAF mutant 14A, recombinant (natural protein, UniProt O75531 1-89, looked up)
chain: B1 chain with P14A
B3: His-tagged human BAF mutant 41E, recombinant (natural protein, UniProt O75531 1-89, looked up)
chain: B1 chain with K41E
B4: His-tagged human BAF mutant 47E, recombinant (natural protein, UniProt O75531 1-89, looked up)
chain: B1 chain with G47E
B5: His-tagged human BAF mutant 53E, recombinant (natural protein, UniProt O75531 1-89, looked up)
chain: B1 chain with K53E

Biological target: the molecule itself
Assay: SEC

Protein	stoichiometry N
B1	2
B2	2
B3	2
B4	2
B5	2
